PMC7474084
pKd: −log10 of the molar value.

Target: Echovirus 30 (E30) mature virion (F-particle) (Echovirus 30)
Test: SPR; BIAcore T100; […]; PBS with 0.05% Tween-20, 25 °C; global fit

Substance	pKd
human FcRn, extracellular domain (from UniProt P55899 24-297; P61769 21-119) (receptor)	5.70
human CD55, extracellular domain (receptor)	5.70
